Source: paper PMC4324353

Target: latrunculin B bound actin (A. castellani actin monomer) (A. castellani)
Test: fluorescence polarisation

Spir second WH2 domain (SB) (domain or fragment)
Kd: 0.09 µM
